# Measured values from patent publication US9266964.
# B1: M29-C07 (Fab, V domains shown)
# VH: EVQLLESGGGLVQPGGSLRLSCAASGFTFSGYDMMWVRQAPGKGLEWVSVISSSGGNTAYADSVKGRFTISRDNSKNTLYLQMNSLRAEDTAVYYCARESSGLYYFDYWGQGTLVTVSS
# VL: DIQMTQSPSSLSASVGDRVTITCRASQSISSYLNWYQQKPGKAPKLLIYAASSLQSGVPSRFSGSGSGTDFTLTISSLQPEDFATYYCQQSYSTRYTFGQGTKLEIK
# notes: Fab fragment (E. coli TG1); printed HC runs into the start of CH1
# B2: M28-F07 (Fab, V domains shown)
# VH: EVQLLESGGGLVQPGGSLRLSCAASGFTFSDYTMYWVRQAPGKGLEWVSSIVPSGGHTLYADSVKGRFTISRDNSKNTLYLQMNSLRAEDTAVYYCAKDHLSSWYGGFFDYWGQGTLVTVSS
# VL: DIQMTQSPSSVSASVGDRVTITCRASQGISSWLAWYQQKPGKAPKLLIYATSGLQSGVPSRFSGSGSGTDFTLTISSLQPEDFATYYCQQAKSFPLTFGGGTRVEIK
# notes: as for B1
# B3: M28-E01 (Fab, V domains shown)
# VH: EVQLLESGGGLVQPGGSLRLSCAASGFTFSSYPMGWVRQAPGKGLEWVSRISSSGGMTIYADSVKGRFTISRDNSKNTLYLQMNSLRAEDTAVYYCARDDWNVGMDVWGQGTTVTVSS
# VL: DIQMTQSPSSLSASVGDRVTITCRASQSISSYLNWYQQKPGKAPKLLIYAASSLQSGVPSKFSGSGSGTDYTLTISSLQPEDFATYYCQQTYTTPWTFGQGTKVEIK
# notes: as for B1
# B4: M28-E11 (Fab, V domains shown)
# VH: EVQLLESGGGLVQPGGSLRLSCAASGFTFSLYDMTWVRQAPGKGLEWVSGISSSGGVTIYADSVKGRFTISRDNSKNTLYLQMNSLRAEDTAVYYCARTYYYDSSGYADAFDIWGQGTMVTVSS
# VL: DIQMTQSPSSVSASVGDRVTINCRASQDISNWLAWYQQKPGKAPNLLIYAASSLQTGAPSRFSGSGSGTDFTLTISSLQPEDFGTYVCQQSYSLPWTFGLGTKVEVR
# notes: as for B1
# B5: M29-G10 (Fab, V domains shown)
# VH: EVQLLESGGGLVQPGGSLRLSCAASGFTFSFYKMIWVRQAPGKGLEWVSSISSSGGSTQYADSVKGRFTISRDNSKNTLYLQMNSLRAEDTAVYYCARDRVDLGYLDYWGQGTLVTVSS
# VL: DIQMTQSPSSLSSSVGDSATITCRASQSISIYLNWYQQKPGKAPKILIYGASQLESGVPSRFSGSGSGTDFTLTVSGLQPEDFATYWCQQSYNVPYTFGQGTKLEIK
# notes: as for B1
# B6: M29-G08 (Fab, V domains shown)
# VH: EVQLLESGGGLVQPGGSLRLSCAASGFTFSYYHMWWVRQAPGKGLEWVSGISPSGGFTFYADSVKGRFTISRDNSKNTLYLQMNSLRAEDTAVYYCARDYYYDSSGYSPLGYWGQGTLVTVSS
# VL: DIQMTQSPATLSASPGETVTLSCRASQNIGNDVAWYRQRPGQAPRLLIHHASTRAYGIPARLRGSGSATEFTLTITSLEPEDFAIYYCQQFYDWPAHTFALGTRLEIKR
# notes: as for B1
# B7: M29-D10 (Fab, V domains shown)
# VH: EVQLLESGGGLVQPGGSLRLSCAASGFTFSWYPMYWVRQAPGKGLEWVSSIGSSGGPTPYADSVKGRFTISRDNSKNTLYLQMNSLRAEDTAVYYCARWADYGGSLDYWGQGTLVTVSS
# VL: DIQMTQSPSSLSASVGDTVSITCRASQSITIYLNWYQHKPGKAPNLLIYGASNLHSGVPSRFSGSGSGTDFTLTISSLQPEDFATYYCQQSYDTPLTFGGGTKVEIK
# notes: as for B1
# B8: M28-D12 (Fab, V domains shown)
# VH: EVQLLESGGGLVQPGGSLRLSCAASGFTFSWYTMHWVRQAPGKGLEWVSVIYPSGGPTSYADSVKGRFTISRDNSKNTLYLQMNSLRAEDTATYYCARDGSGSYLGFDYWGQGTLVTVSS
# VL: DIQMTQSPSSLSASVGDRVTITCRASQSIATYLNWYQQKPGRAPKLLIYAASSLQSGVPSRFVGGGSGSGTHFTLTISSLQPEDFATYYCQQSYSTRETFGQGTKVEIK
# notes: as for B1
# B9: M74-A07 (Fab, V domains shown)
# VH: EVQLLESGGGLVQPGGSLRLSCAASGFTFSQYLMMWVRQAPGKGLEWVSSIYPSGGYTSYADSVKGRFTISRDNSKNTLYLQMNSLRAEDTAVYYCARVSTAVADNDYWGQGTLVTVSS
# VL: DIQMTQSPSSLSASVRDRVTITCRTSQNINTYLNWYYQAPGRAPKLLIFGVSSLHRGVSSRFSGSGDGTEFTLTISSLQPEDIGTYFCQQSYSSPWTFGQGTKVEIK
# notes: as for B1
# Target: T1, human plasma kallikrein (human, UniProt P03952 20-390; P03952 391-638)
# T1 construct: two disulfide-linked chains; also called pKal; human pKal
# Experiment: ELISA; signal on coated biotinylated human plasma kallikrein divided by signal on streptavidin; Fab
# Source text: Abbreviations used: "T/B" is the ELISA signal obtained using of the target (biotinylated plasma kallikrein) divided by the ELISA signal of the "background" (streptavidin); both of which were coated on microtiter plates. "nd" is not determined. The symbol "q" refers to the amber suppressible stop codon (TAG), which is translated as glutamine (Q) in strains of E. coli such as the TG1 cells that were used to express the Fab fragments.
# T1 sequence (P03952 20-390, chain 1 of 2): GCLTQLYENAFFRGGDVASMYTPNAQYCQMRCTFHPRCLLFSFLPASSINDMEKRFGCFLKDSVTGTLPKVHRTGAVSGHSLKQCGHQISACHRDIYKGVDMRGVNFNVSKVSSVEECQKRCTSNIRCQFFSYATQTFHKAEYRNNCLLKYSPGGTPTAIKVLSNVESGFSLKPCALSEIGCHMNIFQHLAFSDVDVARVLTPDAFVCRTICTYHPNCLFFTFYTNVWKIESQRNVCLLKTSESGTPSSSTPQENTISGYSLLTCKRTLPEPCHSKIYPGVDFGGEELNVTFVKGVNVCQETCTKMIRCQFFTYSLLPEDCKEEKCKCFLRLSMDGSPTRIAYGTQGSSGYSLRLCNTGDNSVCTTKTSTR
# T1 sequence (P03952 391-638, chain 2 of 2): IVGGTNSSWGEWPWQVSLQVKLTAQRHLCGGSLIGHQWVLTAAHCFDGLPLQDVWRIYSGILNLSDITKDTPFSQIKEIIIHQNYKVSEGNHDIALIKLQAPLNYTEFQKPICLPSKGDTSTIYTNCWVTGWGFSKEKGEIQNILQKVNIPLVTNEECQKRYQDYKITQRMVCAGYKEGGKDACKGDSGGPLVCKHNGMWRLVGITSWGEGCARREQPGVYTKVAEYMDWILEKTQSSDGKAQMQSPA
row,Binder,Human pKal ELISA (T/B)
1,B1,5.2 T/B (target signal / background signal)
2,B2,33 T/B (target signal / background signal)
3,B3,41 T/B (target signal / background signal)
4,B4,29.3 T/B (target signal / background signal)
5,B5,16.4 T/B (target signal / background signal)
6,B6,40.4 T/B (target signal / background signal)
7,B7,23.6 T/B (target signal / background signal)
8,B8,41.6 T/B (target signal / background signal)
9,B9,8.6 T/B (target signal / background signal)
